{"source": "patent US20080015165A1", "about": "“NOVEL POLYPEPTIDE” (KYOWA HAKKO KOGYO CO., LTD., priority 1998, published 2008)", "molecules": {"B1": {"name": "Fuc-TIV: known human α1,3-fucosyltransferase, previously cloned, expressed in Namalwa cells (protein, UniProt P22083 1-530, looked up)", "Alpha-(1,3)-fucosyltransferase …": "MRRLWGAARKPSGAGWEKEWAEAPQEAPGAWSGRLGPGRSGRKGRAVPGWASWPAHLALAARPARHLGGAGQGPRPLHSGTAPFHSRASGERQRRLEPQLQHESRCRSSTPADAWRAEAALPVRAMGAPWGSPTAAAGGRRGWRRGRGLPWTVCVLAAAGLTCTALITYACWGQLPPLPWASPTPSRPVGVLLWWEPFGGRDSAPRPPPDCRLRFNISGCRLLTDRASYGEAQAVLFHHRDLVKGPPDWPPPWGIQAHTAEEVDLRVLDYEEAAAAAEALATSSPRPPGQRWVWMNFESPSHSPGLRSLASNLFNWTLSYRADSDVFVPYGYLYPRSHPGDPPSGLAPPLSRKQGLVAWVVSHWDERQARVRYYHQLSQHVTVDVFGRGGPGQPVPEIGLLHTVARYKFYLAFENSQHLDYITEKLWRNALLAGAVPVVLGPDRANYERFVPRGAFIHVDDFPSASSLASYLLFLDRNPAVYRRYFHWRRSYAVHITSFWDEPWCRVCQAVQRAGDRPKSIRNLASWFER"}, "B2": {"name": "Mouse Fuc-TIX: polypeptide of 359 amino acids (SEQ ID NO:1) encoded by mouse Fuc-TIX cDNA; novel α1,3-fucosyltransferase (protein)", "chain": "MTSTSKGILRPFLIVCIILGCFMACLLIYIKPTNSWVFSPMESASSVLKMKNFFSTKTDYFNETTILVWVWPFGQTFDLTSCQAMFNIQGCHLTTDRSLYNKSHAVLIHHRDISWDLTNLPQQARPPFQKWIWMNLESPTHTPQKSGIEHLFNLTLTYRRDSDIQVPYGFLTVSTNPFVFEVPSKEKLVCWVVSNWNPEHARVKYYNELSKSIEIHTYGQAFGEYVNDKNLIPTISTCKFYLSFENSIHKDYITEKLYNAFLAGSVPVVLGPSRENYENYIPADSFIHVEDFNSPSELAKYLKEVDKNNKLYLSYFNWRKDFTVNLPRFWESHACLACDHVKRHQEYKSVGNLEKWFWN", "modifications": "Mouse", "notes": "novel α1,3-fucosyltransferase"}}, "key": {"Namalwa cells": {"test_system": "Namalwa cells", "assay": "Indirect fluorescent antibody staining of Namalwa cells expressing human Fuc-TIV or Fuc-TIX (VIM-2 and Le^x sugar chains)", "format": "cell-based", "conditions": "compared to Namalwa cells transfected with pAMo", "protocol": "Using an anti-VIM-2 sugar chain antibody (anti-CDw65 antibody, manufactured by Serotec) and anti-Le^x sugar chain antibodies [73-30 (manufactured by […] CORPORATION) and anti-CD15 antibody (C3D-1, manufactured by Dako)], indirect fluorescent antibody staining was performed for Namalwa cells expressing human Fuc-TIV or human Fuc-TIX, and for Namalwa cells transfected with the control vector pAMo, which were constructed in Example 9. The VIM-2 sugar chain is a sugar chain having the structure consisting of Galβ1-4GlcNAcβ1-3Galβ1-4(Fucα1-3)GlcNAc on non-reduced terminal of a sugar chain.\nIndirect fluorescent antibody staining was performed according to the method described in Example 1 (3). Anti-VIM-2 sugar chain antibodies, 73-30 and C3D-1 were used after dilution at 1:50, 1:100, and 1:50."}, "[1]": {"assay": "Enzyme activity for a poly-N-acetyllactosamine sugar chain, Namalwa cell extract, HPLC", "format": "biochemical", "excerpt": "Using a poly-N-acetyllactosamine sugar chain, it was examined that to which GlcNAc in the sugar chains, human Fuc-TIX and 5 types of human α1,3-fucosyltransferase (Fuc-TIII, Fuc-TIV, Fuc-TV, Fuc-TVI, and Fuc-TVII) that had been cloned so far transferred fucose.\nControl plasmid (pAMo) and the human Fuc-TIX expression plasmid pAMo-FT9 were introduced into Namalwa cells according to the method shown in Example 1 (3), thereby obtaining stable transformants.\nNamalwa cells expressing each of the other 5 types of human α1,3-fucosyltransferases (Fuc-TIII, Fuc-TIV, Fuc-TV, Fuc-TVI, and Fuc-TVII) were obtained according to the previous report (Glycoconjugate J., 13, 802-812, Biochem. Biophys. Res. Commun., 237, 131-137, 1997).\nThe resultant transformants (about 1×10^7) were collected in microtubes (1.5 ml, manufactured by Eppendolf), followed by centrifugation at 550×g for 7 minutes to collect the cells.\nThe collected cells were washed with 0.9 ml of PBS. The washed cells were suspended in 100 μl of a solution which consisted of 20 mM HEPES (pH 7.2) and 1% TrironX-100, then allowed to stand at 4° C. for 10 minutes. Subsequently the cells were disrupted using a ultrasonicator (Bioruptor; manufactured by COSMO BIO CO., LTD.)\nAfter disruption of the cells, each supernatant was obtained by centrifugation at 550×g for 7 minutes and used as an enzyme sample. A poly-N-acetyllactosamine sugar chain (Galβ1-4GlcNAcβ1-3Galβ1-4GlcNAcβ1-3Galβ1-4GlcNAc) consisting of 6 sugars was fluorescently labeled with 2-aminobenzamide to make a sugar chain (Galβ1-4GlcNAcβ1-3Galβ1-4GlcNAcβ1-3Galβ1-4GlcNAc-2AB: abbreviated as S in FIGS. 13 and 15, and table 3), which was used as a substrate\nFlorescent labeling was performed using a Signal™ 2-AB glycan labeling kit (manufactured by Oxford GlycoScience). A poly-N-acetyllactosamine sugar chain (Galβ1-4GlcNAcβ1-3Galβ1-4GlcNAcβ1-3Galβ1-4GlcNAc) was prepared according to WO98/03524.\n(§1) Samples were allowed to react in 20 μl of an assay solution [50 mM cacodylate (pH 6.8), 5 mM ATP, 10 mM L-fucose, 75 μM […] (manufactured by SIGMA), 25 mM MnCl2, 15 μM fluorescently labeled sugar chain substrate, 6 μl of the cell lysate above] at 37° C. for 2 hours, followed by treatment at 100° C. for 3 minutes to stop the reaction. Next 200 μl of water was added to the samples, and the supernatant was obtained by centrifugation at 10,000×g for 5 minutes. Using an aliquot of the supernatant (10 μl), products were analyzed by HPLC under the following conditions.\n(§2) HPLC: • Column—TSK-gel ODS-80TsQA column (4.6×250 mm; TOSOH CORPORATION) • Eluate—0.02 M ammonium acetate (pH 4.0) containing 7% methanol • Elution temperature—50° C. • Flow rate—1.0 ml/min. • Detection—Fluorescence spectrum photometer FB-920 (manufactured by JASCO Corporation) (excitation wavelength: 330 nm, radiation wavelength: 420 nm)"}, "[2]": {"assay": "Enzyme activity for monofucosylpoly-N-acetyllactosamine sugar chain P2, Namalwa cell extract, HPLC", "format": "biochemical", "conditions": "relative activity with the activity for P2 assumed to be 1", "protocol": "as §1, §2"}, "[3]": {"assay": "In vitro α1,3-fucosyltransferase activity, COS-1 cell lysate, pyridylaminated substrate, HPLC", "format": "biochemical", "conditions": "activity of human Fuc-TVI for α2,3-sialylLNnT taken as 100; 25 μM substrate, 2 hours at 37° C.; normalized to transcript amount"}, "[4]": {"assay": "In vitro α1,3-fucosyltransferase activity, COS-1 cell lysate, pyridylaminated substrate, HPLC", "format": "biochemical", "conditions": "activity of human Fuc-TVI for α2,3-sialylLNnT taken as 100; 25 μM substrate, 2 hours at 37° C.; normalized to transcript amount", "protocol": "Each α1,3-fucosyltransferase expression plasmid (15 μg) was introduced into 1×10^7 COS-1 cells.\nThis introduction was performed by electroporation method using a gene pulser (manufactured by Bio-Rad) according to the Bio-Rad's instructional manual attached thereto. At this time, 1 μg of a luciferase expression vector, which was constructed by inserting β-actin promoter into a Hind III site of a vector pSVOA/L [Experimental Medicine, 7, 96, (1989)] was co-introduced as an index of gene transfer efficiency.\nAfter the gene introduction, COS-1 cells were dispensed into three dishes for cell culture with a diameter of 15 cm and then cultured for 48 hours.\nThe cells in the remaining two dishes were collected, suspended in a solution (20 mM HEPES (pH 7.4), 2% TrironX-100), then ultrasonicated for a short time period, thereby preparing cell lysate. The protein concentration of the cell lysate was measured using a micro BCA protein assay reagent kit (manufactured by PIERCE).\nThe enzymatic activities of luciferase and α1,3-fucosyltransferase were measured using the cell lysate. […]\nEach of the substrates was allowed to react in assay solution with or without GDP-Fuc (sugar donator), then analyzed with HPLC. […]\nThe products were detected using a fluorescent spectrum photometer FP-920 (JASCO Corporation) at excitation wavelength of 320 nm and emission wavelength of 400 nm. […]", "remark": "listed apart in the source"}, "[5]": {"conditions": "relative activity with the activity for P2 assumed to be 1"}, "[6]": {"conditions": "substrate S, relative value, total of products P1, P2 and P3 by each enzyme = 100%"}}, "data": [{"molecule": "B1", "values": [{"measurement": "reactivity against the anti-VIM-2 sugar chain antibody", "setting": "Namalwa cells", "result": "significant increase"}, {"measurement": "Enzymatic activity, substrate S, product P1", "setting": "[1]; [5]", "result": 1.6}, {"measurement": "Enzymatic activity, substrate S, product P2", "setting": "[1]; [5]", "result": 4.1}, {"measurement": "Enzymatic activity, substrate S, product P3", "setting": "[1]; [5]", "result": 0.5}, {"measurement": "Production (%) P1", "setting": "[1]; [6]", "result": 22.2, "unit": "%"}, {"measurement": "Production (%) P2", "setting": "[1]; [6]", "result": 72.0, "unit": "%"}, {"measurement": "Production (%) P3", "setting": "[1]; [6]", "result": 5.8, "unit": "%"}, {"measurement": "Enzymatic activity, substrate P2, product P3", "setting": "[2]", "result": 1.0}]}, {"molecule": "B2", "values": [{"measurement": "Relative activity of α1,3-fucosyltransferases for substrate LNT", "setting": "[3]", "result": 0}, {"measurement": "Relative activity of α1,3-fucosyltransferases for substrate α2,3-sialyl LNnT", "setting": "[4]", "result": 0}]}]}
